# According to the Immune Epitope Database (IEDB):
# pIC50, pKd: −log10 of the molar value.
# Assays:
# [1] = target: HLA-A*68:02; assay: IEDB peptide-MHC binding, purified MHC/direct/fluorescence; filed as Kd, often an IC50 or EC50 that approximates it; ≥ and ≤ were set here for values at or beyond the usual limits of such assays
# [2] = target: HLA-A*02:12; assay: as above
# [3] = target: HLA-A*02:19; assay: as above
# [4] = target: HLA-A*02:16; assay: as above
# [5] = target: HLA-A*03:01; assay: as above
# [6] = target: HLA-A*02:11; assay: as above
# [7] = target: HLA-A*23:01; assay: as above
# [8] = target: HLA-A*29:02; assay: as above
# [9] = target: HLA-A*26:01; assay: as above; conditions: source organism: Zaire ebolavirus
# [10] = target: HLA-A*24:03; assay: as above
# [11] = target: HLA-A*02:03; assay: as above
# [12] = target: HLA-A*01:01; assay: IEDB peptide-MHC binding, purified MHC/competitive/fluorescence; ≥ and ≤ were set here for values at or beyond the usual limits of such assays; conditions: source organism: Zaire ebolavirus
# [13] = target: HLA-B*15:17; assay: IEDB peptide-MHC binding, purified MHC/competitive/fluorescence; filed as Kd, often an IC50 or EC50 that approximates it; ≥ and ≤ were set here for values at or beyond the usual limits of such assays
# [14] = target: HLA-B*18:01; assay: as above
# [15] = target: HLA-B*51:01; assay: as above
# [16] = target: HLA-B*46:01; assay: as above
# [17] = target: HLA-B*39:01; assay: as above
# [18] = target: HLA-A*02:01; assay: as above
# [19] = target: HLA-B*15:01; assay: as above
# [20] = target: HLA-A*69:01; assay: as above
# [21] = target: HLA-B*27:03; assay: as above
# [22] = target: HLA-B*57:01; assay: as above
# [23] = target: HLA-B*07:02; assay: IEDB peptide-MHC binding, purified MHC/competitive/fluorescence; ≥ and ≤ were set here for values at or beyond the usual limits of such assays; conditions: source organism: Zaire ebolavirus
# [24] = target: HLA-A*02:01; assay: as above
# [25] = target: HLA-B*15:01; assay: as above
# [26] = target: HLA-A*24:02; assay: as above
# [27] = target: HLA-A*68:02; assay: IEDB peptide-MHC binding, purified MHC/competitive/fluorescence; filed as Kd, often an IC50 or EC50 that approximates it; ≥ and ≤ were set here for values at or beyond the usual limits of such assays
# [28] = target: HLA-A*02:12; assay: as above
# [29] = target: HLA-A*02:19; assay: as above
# [30] = target: HLA-A*02:16; assay: as above
# [31] = target: HLA-A*03:01; assay: as above
# [32] = target: HLA-A*02:11; assay: as above
# [33] = target: HLA-A*23:01; assay: as above
# [34] = target: HLA-A*26:01; assay: as above
# [35] = target: HLA-A*24:03; assay: as above
# [36] = target: HLA-A*02:03; assay: as above
# [37] = target: HLA-A*24:02; assay: as above
# [38] = target: HLA-B*27:05; assay: as above; conditions: source organism: Orthohantavirus dobravaense
# [39] = target: HLA-B*08:01; assay: IEDB peptide-MHC binding, purified MHC/competitive/fluorescence; ≥ and ≤ were set here for values at or beyond the usual limits of such assays
# [40] = target: HLA-A*29:02; assay: IEDB peptide-MHC binding, purified MHC/competitive/fluorescence; filed as Kd, often an IC50 or EC50 that approximates it; ≥ and ≤ were set here for values at or beyond the usual limits of such assays
# [41] = source organism: Zaire ebolavirus
# [42] = source organism: Vibrio parahaemolyticus RIMD 2210633
# [43] = source organism: Orthohantavirus sangassouense
# [44] = source organism: Orthohantavirus dobravaense
# [45] = source organism: Vaccinia virus WR
# [46] = source organism: Yersinia pestis Nepal516
# [47] = source organism: Coxiella burnetii 'MSU Goat Q177'
# [48] = source organism: Vaccinia virus
sequence,measurement,setting,value
EAEKQLQQY,pKd,[1]; [41],≤ 4.70
same,pKd,[2]; [41],≤ 4.70
same,pKd,[3]; [41],≤ 4.70
same,pKd,[4]; [41],≤ 4.70
same,pKd,[5]; [41],≤ 4.70
same,pKd,[6]; [41],≤ 4.70
same,pKd,[7]; [41],≤ 4.70
same,pKd,[8]; [41],≤ 4.70
same,pKd,[9],5.65
same,pKd,[10]; [41],≤ 4.70
same,pKd,[11]; [41],≤ 4.70
same,pIC50,[12],4.74
same,pKd,[13]; [41],≤ 4.70
same,pKd,[14]; [41],≤ 4.70
same,pKd,[15]; [41],≤ 4.70
same,pKd,[16]; [41],≤ 4.70
same,pKd,[17]; [41],≤ 4.70
same,pKd,[18]; [41],≤ 4.70
same,pKd,[19]; [41],≤ 4.70
same,pKd,[20]; [41],≤ 4.70
same,pKd,[21]; [41],≤ 4.70
same,pKd,[22]; [41],≤ 4.70
AQPKCNPNL,pIC50,[23],≤ 3.92
same,pIC50,[24]; [41],4.32
same,pIC50,[25]; [41],≤ 4.03
same,pIC50,[26]; [41],4.92
GTVPTDNPF,pKd,[27]; [42],≤ 4.70
same,pKd,[14]; [42],≤ 4.70
same,pKd,[15]; [42],≤ 4.70
same,pKd,[16]; [42],≤ 4.70
same,pKd,[17]; [42],≤ 4.70
same,pKd,[28]; [42],≤ 4.70
same,pKd,[29]; [42],≤ 4.70
same,pKd,[30]; [42],≤ 4.70
same,pKd,[31]; [42],≤ 4.70
same,pKd,[32]; [42],≤ 4.70
same,pKd,[33]; [42],≤ 4.70
same,pKd,[34]; [42],≤ 4.70
same,pKd,[18]; [42],≤ 4.70
same,pKd,[20]; [42],≤ 4.70
same,pKd,[35]; [42],≤ 4.70
same,pKd,[21]; [42],≤ 4.70
same,pKd,[36]; [42],≤ 4.70
same,pKd,[22]; [42],5.26
IWGGTSFLF,pKd,[37]; source organism: Salmonella enterica subsp. enterica serovar Typhi,≥ 10.00
SFERFEIF,pKd,[37]; source organism: Influenza A virus (A/Harbin/1/1988(H1N2)),6.62
ITPKTHFLF,pKd,[37]; source organism: Giardia intestinalis ATCC 50581,9.70
MRNTIMASK,pKd,[1]; [43],≤ 4.70
same,pKd,[2]; [43],≤ 4.70
same,pKd,[3]; [43],≤ 4.70
same,pKd,[4]; [43],≤ 4.70
same,pKd,[5]; [43],≤ 4.70
same,pKd,[6]; [43],≤ 4.70
same,pKd,[7]; [43],≤ 4.70
same,pKd,[8]; [43],≤ 4.70
same,pKd,[10]; [43],≤ 4.70
same,pKd,[11]; [43],≤ 4.70
same,pKd,[13]; [44],≤ 4.70
same,pKd,[38],6.84
same,pKd,[14]; [44],≤ 4.70
same,pKd,[15]; [44],≤ 4.70
same,pKd,[16]; [44],≤ 4.70
same,pKd,[17]; [44],≤ 4.70
same,pKd,[34]; [44],≤ 4.70
same,pKd,[18]; [44],≤ 4.70
same,pKd,[19]; [44],≤ 4.70
same,pKd,[20]; [44],≤ 4.70
same,pKd,[22]; [44],≤ 4.70
VSHLTTLAT,pIC50,[24]; [41],≤ 3.14
same,pIC50,[25]; [41],4.54
KHHTKIDSM,pIC50,[39]; source organism: Variola virus,≤ 3.68
same,pIC50,[26]; source organism: Variola virus,5.77
FGLYKSINV,pIC50,[39]; [45],4.43
same,pIC50,[24]; [45],6.13
YADGGQWYN,pKd,[13]; [46],≤ 4.70
same,pKd,[27]; [46],≤ 4.70
same,pKd,[14]; [46],≤ 4.70
same,pKd,[16]; [46],≤ 4.70
same,pKd,[17]; [46],≤ 4.70
same,pKd,[28]; [46],≤ 4.70
same,pKd,[29]; [46],≤ 4.70
same,pKd,[30]; [46],≤ 4.70
same,pKd,[31]; [46],≤ 4.70
same,pKd,[32]; [46],7.25
same,pKd,[33]; [46],≤ 4.70
same,pKd,[40]; [46],≤ 4.70
same,pKd,[34]; [46],≤ 4.70
same,pKd,[18]; [46],≤ 4.70
same,pKd,[19]; [46],≤ 4.70
same,pKd,[20]; [46],≤ 4.70
same,pKd,[35]; [46],≤ 4.70
same,pKd,[21]; [46],≤ 4.70
same,pKd,[36]; [46],≤ 4.70
same,pKd,[22]; [46],≤ 4.70
YQSYSENGM,pIC50,[24]; [41],4.56
same,pIC50,[25]; [41],4.78
RQLAKAIIT,pIC50,[25]; source organism: Vaccinia virus Copenhagen,4.39
AVDWYQQRI,pKd,[13]; [47],≤ 4.70
same,pKd,[27]; [47],≤ 4.70
same,pKd,[14]; [47],≤ 4.70
same,pKd,[15]; [47],≤ 4.70
same,pKd,[16]; [47],≤ 4.70
same,pKd,[17]; [47],≤ 4.70
same,pKd,[28]; [47],≤ 4.70
same,pKd,[29]; [47],≤ 4.70
same,pKd,[30]; [47],6.44
same,pKd,[31]; [47],≤ 4.70
same,pKd,[32]; [47],≤ 4.70
same,pKd,[33]; [47],≤ 4.70
same,pKd,[40]; [47],≤ 4.70
same,pKd,[34]; [47],≤ 4.70
same,pKd,[18]; [47],≤ 4.70
same,pKd,[19]; [47],≤ 4.70
same,pKd,[20]; [47],≤ 4.70
same,pKd,[35]; [47],≤ 4.70
same,pKd,[21]; [47],≤ 4.70
same,pKd,[36]; [47],≤ 4.70
same,pKd,[22]; [47],≤ 4.70
IDILRSLET,pIC50,[39]; [48],≤ 3.29
same,pIC50,[24]; [48],4.35
